In US20170137467A1 (CHROMOTEK, published 2017) one finds ratio data, which are given here for five molecules.

The target of one experiment is T1, BC2T P1M (human).
T1 construct: position 1 library, row M
T1 peptide: Ac-MDRKAAVSHWQQ-NH2
Description: library pulldown, LC-MS of supernatant; ratio vs GFP-Nb control (0=captured, 1=not captured). An excerpt: (§1) In total, 12 different BC2T libraries displaying all 20 proteinogenic amino acids in one single position of the peptide were used in immunoprecipitation experiments. […] The direct comparison with the GFP-Nb made it possible to determine the quantitative degree of peptide capture without the need of labeled standards. […] The more peptide was captured the more the value approximates 0. It was not possible to discriminate between isoleucine (I) and leucine (L) peptide versions since these peptides are isobaric.
(§2) To investigate the binding specificity of the BC2T and derived mutants peptide libraries for each amino acid position of the sequence […] (SEQ ID NO:4) were synthesized with acetyl and amide groups located at the N-termini or C-termini respectively (Intavis). […] Incubations were performed in 300 μl PBS/0.01% CHAPS for 1 h on a HulaMixer (Life Technologies). Subsequent to a centrifugation step 10 μl supernatant were analyzed in a LC-MS procedure. Peptides were separated using an UltiMate3000 RSLCnano System (Thermo Scientific), composed of a C18 PepMap100μ-Precolumn (300 μm×5 mm; particle size: 5 μm; pore size: 100 Å—Thermo Scientific) and a C18 analytical column (Acclaim Rapid Separation LC (RSLC) Column: 150 mm×5 mm; particle size: 2.2 μm; pore size: 100 Å—Thermo Scientific). A step gradient was applied starting at 8% and ending after 20 min at 30% eluent B (80% acetonitrile, 20% H₂O, 0.1% formic acid).

Another experiment addresses T2, BC2T A5G (human).
T2 construct: position 5 library, row G
T2 peptide: Ac-PDRKGAVSHWQQ-NH2
The experiment is described as above.
Description: as §1, §2

The target in another experiment is T3, BC2T R3M (human).
T3 construct: position 3 library (BC2TR3X), row M
T3 peptide: Ac-PDMKAAVSHWQQ-NH2
The experiment is described as above.
Description: as §1, §2

The target in the next experiment is T4, BC2T V7(I/L2).
T4 construct: position 7 library, row I/L2
Described as above.
Description: as §1, §2

A further experiment concerns the target T5, BC2T D2(I/L2).
T5 construct: position 2 library, row I/L2
The experiment is described as above.
Description: as §1, §2

Another experiment addresses T6, BC2T A6(I/L1).
T6 construct: position 6 library (BC2TA6X), row I/L1
Described as above.
Description: as §1, §2

The next experiment has as its target T7, BC2T R3V (human).
T7 construct: position 3 library (BC2TR3X), row V
T7 peptide: Ac-PDVKAAVSHWQQ-NH2
The description is as above.
Description: as §1, §2

The target of the next experiment is T8, BC2T R3G (human).
T8 construct: position 3 library (BC2TR3X), row G
T8 peptide: Ac-PDGKAAVSHWQQ-NH2
The description is as above.
Description: as §1, §2

The target of a further experiment is T9, BC2T K4A (human).
T9 construct: position 4 library, row A
T9 peptide: Ac-PDRAAAVSHWQQ-NH2
The experiment is described as above.
Description: as §1, §2

A further experiment deals with T10, BC2T A6M (human).
T10 construct: position 6 library (BC2TA6X), row M
T10 peptide: Ac-PDRKAMVSHWQQ-NH2
Described as above.
Description: as §1, §2

A further experiment concerns the target T11, BC2T D2V (human).
T11 construct: position 2 library, row V
T11 peptide: Ac-PVRKAAVSHWQQ-NH2
The experiment is described as above.
Description: as §1, §2

In another experiment the target is T12, BC2T A5(I/L1).
T12 construct: position 5 library, row I/L1
The experiment is described as above.
Description: as §1, §2

For the next experiment, the target named is T13, BC2T V7A (human).
T13 construct: position 7 library, row A
T13 peptide: Ac-PDRKAAASHWQQ-NH2
The experiment is described as above.
Description: as §1, §2

The next experiment concerns the target T14, BC2T R3A (human).
T14 construct: position 3 library (BC2TR3X), row A
T14 peptide: Ac-PDAKAAVSHWQQ-NH2
The description is as above.
Description: as §1, §2

Another experiment has as its target T15, BC2T A5M (human).
T15 construct: position 5 library, row M
T15 peptide: Ac-PDRKMAVSHWQQ-NH2
Described as above.
Description: as §1, §2

The next experiment concerns the target T16, BC2T D2G (human).
T16 construct: position 2 library, row G
T16 peptide: Ac-PGRKAAVSHWQQ-NH2
Described as above.
Description: as §1, §2

The next experiment deals with T17, BC2T Q11M.
T17 construct: positional scanning library member
T17 peptide: Ac-PDRKAAVSHWMQ-NH2
Briefly: positional peptide library pulldown on immobilised Nb, LC-MS of supernatant; signal ratio to control GFP-Nb (1 = not captured, near 0 = captured).
Description: as §1, §2

A further experiment deals with T18, BC2T H9G.
T18 construct: positional scanning library member
T18 peptide: Ac-PDRKAAVSGWQQ-NH2
The description is as above.
Description: as §1, §2

Another experiment concerns the target T19, BC2T Q12(I/L2) (N-terminal acetyl; C-terminal amide).
T19 construct: positional scanning library member; I or L not resolved
The description is as above.
Description: as §1, §2

The target of a further experiment is T20, BC2T W10F.
T20 construct: positional scanning library member
T20 peptide: Ac-PDRKAAVSHFQQ-NH2
The experiment is described as above.
Description: as §1, §2

A further experiment concerns the target T21, BC2T H9T.
T21 construct: positional scanning library member
T21 peptide: Ac-PDRKAAVSTWQQ-NH2
Described as above.
Description: as §1, §2

Another experiment addresses T22, BC2T W10Q.
T22 construct: positional scanning library member
T22 peptide: Ac-PDRKAAVSHQQQ-NH2
The experiment is described as above.
Description: as §1, §2

B1: BC2 nanobody (BC2-Nb) (VHH)
VHH: QVQLVESGGGLVQPGGSLTLSCTASGFTLDHYDIGWFRQAPGKEREGVSCINNSDDDTYYADSVKGRFTIFMDNAKDTVYLQMNSLKPEDTAIYYCAEARGCKRGRYEYDFWGQGTQVTVSS
notes: immobilised on agarose/sepharose beads in this assay; also called BC2 nanotrap (immobilised form); not shown: C-terminal 6xHis-tag added by pHEN6 vector
B1: the ratio with BC2T P1M was 0.2; in the experiment with BC2T A5G, 0.3; with BC2T R3M, 0.7; with BC2T V7(I/L2), 0.2; with BC2T D2(I/L2) it was 0.2; with BC2T A6(I/L1) it was 0.7. In addition, the ratio in the experiment with BC2T R3V turned out to be 0.3; with BC2T R3G, 0.9; with BC2T K4A it was 0.2; with BC2T A6M, 1; with BC2T D2V it was 0.1; with BC2T A5(I/L1), 0.1. Further, the ratio is 0.4 with BC2T V7A, 0.7 with BC2T R3A, 0.1 in the experiment with BC2T A5M and 0.3 with BC2T D2G.

B2: BC2 nanobody (VHH)
VHH: QVQLVESGGGLVQPGGSLTLSCTASGFTLDHYDIGWFRQAPGKEREGVSCINNSDDDTYYADSVKGRFTIFMDNAKDTVYLQMNSLKPEDTAIYYCAEARGCKRGRYEYDFWGQGTQVTVSS
notes: immobilised on beads in this assay; also called BC2-Nb; BC2 nanotrap (immobilised)
Turning to B2, the ratio worked out at 0.1 with BC2T Q11M; 0.4 with BC2T H9G; 0.1 with BC2T Q12(I/L2); 0.9 in the experiment with BC2T W10F; 0.2 with BC2T H9T; 1.1 in the experiment with BC2T W10Q.

B3: BC2-NbR106S (VHH)
VHH: QVQLVESGGGLVQPGGSLTLSCTASGFTLDHYDIGWFRQAPGKEREGVSCINNSDDDTYYADSVKGRFTIFMDNAKDTVYLQMNSLKPEDTAIYYCAEARGCKRGSYEYDFWGQGTQVTVSS
notes: immobilised on beads in this assay; not shown: C-terminal 6xHis-tag added by pHEN6 vector
On to B3, for which the ratio with BC2T P1M was determined as 0.5; with BC2T A5G, 0.5; with BC2T R3M it was 0.9; in the experiment with BC2T V7(I/L2), 0.4; with BC2T D2(I/L2), 0.3; with BC2T A6(I/L1), 0.8. Also, the ratio in the experiment with BC2T R3V turned out to be 0.7; in the experiment with BC2T R3G, 1; with BC2T K4A, 0.6; with BC2T A6M, 0.9; in the experiment with BC2T D2V, 0.2; in the experiment with BC2T A5(I/L1), 0.2. Also, the ratio with BC2T V7A was 0.7; with BC2T R3A, 0.9; with BC2T A5M, 0.2; in the experiment with BC2T D2G, 0.5.

B4: BC2-NbR106E (VHH)
VHH: QVQLVESGGGLVQPGGSLTLSCTASGFTLDHYDIGWFRQAPGKEREGVSCINNSDDDTYYADSVKGRFTIFMDNAKDTVYLQMNSLKPEDTAIYYCAEARGCKRGEYEYDFWGQGTQVTVSS
notes: as for B3
With B4, the ratio came to 0.4 in the experiment with BC2T P1M; 0.4 with BC2T A5G; 0.9 in the experiment with BC2T R3M; 0.2 with BC2T V7(I/L2); 0.2 with BC2T D2(I/L2); 0.7 with BC2T A6(I/L1). The ratio stood at 0.5 with BC2T R3V; 1 with BC2T R3G; 0.4 with BC2T K4A; 1 with BC2T A6M; 0.1 with BC2T D2V; 0.1 with BC2T A5(I/L1). For the same molecule, the ratio was 0.5 with BC2T V7A, 1 in the experiment with BC2T R3A, 0.1 in the experiment with BC2T A5M and 0.4 with BC2T D2G.

B5: BC2-NbR106S (VHH)
VHH: QVQLVESGGGLVQPGGSLTLSCTASGFTLDHYDIGWFRQAPGKEREGVSCINNSDDDTYYADSVKGRFTIFMDNAKDTVYLQMNSLKPEDTAIYYCAEARGCKRGSYEYDFWGQGTQVTVSS
notes: headlock mutant of BC2-Nb; immobilised on beads in this assay
As to B5, the ratio stood at 0.3 with BC2T Q11M; 0.8 with BC2T H9G; 0.2 with BC2T Q12(I/L2); 1.1 with BC2T W10F; 0.5 with BC2T H9T; 1.1 in the experiment with BC2T W10Q.
